The text below walks through data of patent publication US20250222128A1, “ANTIBODY DRUG-CONJUGATES TARGETING C-MET AND METHODS OF USE THEREOF” (Zymeworks BC Inc., priority 2022, published 2025).

A value given as a limit tells only on which side of the number the result lay.

For test [1], the target named is c-Met (hepatocyte growth factor receptor, HGFR), endogenous on tumour cell lines (UniProt P08581). Briefly: apparent Kd, flow cytometry on SNU-5 cells (endogenous cMet). In general terms: Flow cytometry measures light scatter and fluorescence of single cells or particles in a stream.
Test [2] has the same target. Briefly: apparent Kd, flow cytometry on H292 cells (endogenous cMet).
Test [3] shares this target. Description: cell-based or functional assay.

Chain of c-Met (hepatocyte growth factor receptor, HGFR), endogenous on tumour cell lines (P08581 25-1390 limits assumed): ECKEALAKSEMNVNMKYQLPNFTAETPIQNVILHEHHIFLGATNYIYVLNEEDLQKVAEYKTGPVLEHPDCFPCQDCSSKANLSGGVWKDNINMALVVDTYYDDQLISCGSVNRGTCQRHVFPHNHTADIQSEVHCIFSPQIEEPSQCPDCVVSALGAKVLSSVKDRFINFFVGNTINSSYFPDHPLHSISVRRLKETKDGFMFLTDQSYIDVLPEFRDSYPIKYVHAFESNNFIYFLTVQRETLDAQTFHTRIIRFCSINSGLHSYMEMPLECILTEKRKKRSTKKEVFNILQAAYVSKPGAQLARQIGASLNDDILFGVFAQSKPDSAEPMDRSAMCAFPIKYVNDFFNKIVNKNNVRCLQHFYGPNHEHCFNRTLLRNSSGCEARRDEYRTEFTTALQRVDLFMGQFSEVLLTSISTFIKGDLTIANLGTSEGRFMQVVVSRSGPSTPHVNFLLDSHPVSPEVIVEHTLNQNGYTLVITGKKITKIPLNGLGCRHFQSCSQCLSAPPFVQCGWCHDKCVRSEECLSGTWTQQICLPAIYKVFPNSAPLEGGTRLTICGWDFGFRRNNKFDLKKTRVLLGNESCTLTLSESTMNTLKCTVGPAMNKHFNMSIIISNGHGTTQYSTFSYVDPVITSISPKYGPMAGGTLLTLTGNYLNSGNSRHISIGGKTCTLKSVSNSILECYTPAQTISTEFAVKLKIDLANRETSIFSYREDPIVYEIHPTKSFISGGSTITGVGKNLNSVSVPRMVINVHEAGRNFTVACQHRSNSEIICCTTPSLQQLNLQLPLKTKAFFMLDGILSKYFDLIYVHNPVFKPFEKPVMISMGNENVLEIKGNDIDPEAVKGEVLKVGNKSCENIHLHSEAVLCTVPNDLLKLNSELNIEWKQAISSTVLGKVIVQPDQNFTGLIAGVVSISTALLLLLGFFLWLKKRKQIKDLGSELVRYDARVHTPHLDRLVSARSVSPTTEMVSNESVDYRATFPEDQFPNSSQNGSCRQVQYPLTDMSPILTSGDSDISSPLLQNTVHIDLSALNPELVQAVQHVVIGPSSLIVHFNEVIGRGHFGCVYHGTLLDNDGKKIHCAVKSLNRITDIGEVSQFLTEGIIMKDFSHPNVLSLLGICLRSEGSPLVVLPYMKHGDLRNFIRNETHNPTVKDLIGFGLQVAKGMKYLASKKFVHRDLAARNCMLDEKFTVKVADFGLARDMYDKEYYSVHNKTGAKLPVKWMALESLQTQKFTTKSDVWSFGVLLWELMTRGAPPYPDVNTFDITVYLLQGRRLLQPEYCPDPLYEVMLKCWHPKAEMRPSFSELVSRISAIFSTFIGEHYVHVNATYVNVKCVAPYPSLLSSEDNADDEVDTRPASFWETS

For “palivizumab (v22277), unconjugated anti-RSV antibody”, the Kd in test [1] is greater than 50 nM. The Kd in test [2] is greater than 50 nM. For the same substance, in test [3], the Mean Object Fluorescence (Internalized), 5 Hours 37° C., EBC-1, 0.3 nM was 2690; the Mean Object Fluorescence (Internalized), 5 Hours 37° C., EBC-1, 1.9 nM is 3050; the Mean Object Fluorescence (Internalized), 5 Hours 37° C., EBC-1, 12 nM was 1990; the Mean Object Fluorescence (Internalized), 5 Hours 37° C., EBC-1, 70 nM was 2600. Further, in test [3], the Mean Object Fluorescence (Internalized), 5 Hours 37° C., HT-29, 0.3 nM was determined as 2750; the Mean Object Fluorescence (Internalized), 5 Hours 37° C., HT-29, 1.9 nM stood at 2360; the Mean Object Fluorescence (Internalized), 5 Hours 37° C., HT-29, 12 nM was 2330; the Mean Object Fluorescence (Internalized), 5 Hours 37° C., HT-29, 70 nM was found to be 2290.
